In test [1] the target is T1, recombinant human CEACAM5 Extra Cellular Domain (ECD) soluble protein (human, UniProt P06731 35-685, biotinylated in the competition ELISA of Example 4).
T1 construct: extracellular domain; also called rec. hCEACAM5; recombinant soluble human CEACAM5; not shown: C-terminal Avitag and hexa-histidine tag, or a human Fc or a mouse Fc region; which construct stood in each assay is not
T1 sequence (looked up): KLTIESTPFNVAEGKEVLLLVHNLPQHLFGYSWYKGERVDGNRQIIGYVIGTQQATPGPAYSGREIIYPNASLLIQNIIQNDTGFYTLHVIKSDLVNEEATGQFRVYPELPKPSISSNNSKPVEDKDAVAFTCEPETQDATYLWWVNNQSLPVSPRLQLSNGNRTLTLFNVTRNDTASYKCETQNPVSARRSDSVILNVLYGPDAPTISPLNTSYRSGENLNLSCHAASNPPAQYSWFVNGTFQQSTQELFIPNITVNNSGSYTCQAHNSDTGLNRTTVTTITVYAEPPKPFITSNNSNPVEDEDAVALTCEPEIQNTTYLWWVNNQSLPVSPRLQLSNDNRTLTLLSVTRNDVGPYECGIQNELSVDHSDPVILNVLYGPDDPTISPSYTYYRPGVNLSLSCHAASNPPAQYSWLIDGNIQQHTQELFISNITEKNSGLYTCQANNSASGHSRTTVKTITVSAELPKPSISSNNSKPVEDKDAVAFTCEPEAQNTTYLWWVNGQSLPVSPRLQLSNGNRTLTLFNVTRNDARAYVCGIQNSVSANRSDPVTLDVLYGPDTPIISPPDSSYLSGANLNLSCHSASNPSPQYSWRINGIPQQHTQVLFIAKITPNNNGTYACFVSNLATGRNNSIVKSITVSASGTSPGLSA
Description: BLI (Octet), antibody on Protein A biosensor, soluble CEACAM5 ECD as analyte. The procedure:
(§1) The affinity of the anti-human CEACAM5 arm of the CD47×CEACAM5 bispecific antibodies of the invention for recombinant soluble human CEACAM5 was determined using the Bio-Layer Interferometry (BLI) technology. An OctetRED96 instrument and Protein A biosensors were used (Sartorius). The measurement was performed at 30° C. After hydration, pre-conditioning and a baseline step in Kinetic buffer (PBS, 0.002% Tween 20, 0.01% BSA, Kathon; Sartorius), biosensors were loaded for 5 min with the κλ body at 0.5 μg/mL in Kinetic buffer. Then, biosensors were dipped into a serial dilution of recombinant human CEACAM5 Extra Cellular Domain (ECD) soluble protein (produced in house), starting at 50 nM with a 2× dilution factor. The association and dissociation phases were monitored for 600 seconds each. Biosensors were regenerated using 10 mM glycine pH 1.7. A standard acquisition rate was applied (5.0 Hz, averaging by 20). Curves were processed with a reference well subtraction, a Y alignment on the baseline, without interstep correction. The affinity was measured applying a 1:1 global fitting model on the full association and dissociation steps. The binding affinity (KD) of the bispecific antibodies of the invention to recombinant human CD47 was determined by the same experimental procedure.
(In general: Biolayer interferometry detects binding as a change in optical thickness at a sensor tip.)

The target of test [2] is T2, human CEACAM5 on CEACAM5-expressing cancer cell lines (human, UniProt P06731 35-685).
T2 construct: whole, on cells; also called CEACAM5 on SK-CO-1, MKN-45, HPAF-II, SNU-C1, Ls174T, LoVo cells
T2 sequence (looked up): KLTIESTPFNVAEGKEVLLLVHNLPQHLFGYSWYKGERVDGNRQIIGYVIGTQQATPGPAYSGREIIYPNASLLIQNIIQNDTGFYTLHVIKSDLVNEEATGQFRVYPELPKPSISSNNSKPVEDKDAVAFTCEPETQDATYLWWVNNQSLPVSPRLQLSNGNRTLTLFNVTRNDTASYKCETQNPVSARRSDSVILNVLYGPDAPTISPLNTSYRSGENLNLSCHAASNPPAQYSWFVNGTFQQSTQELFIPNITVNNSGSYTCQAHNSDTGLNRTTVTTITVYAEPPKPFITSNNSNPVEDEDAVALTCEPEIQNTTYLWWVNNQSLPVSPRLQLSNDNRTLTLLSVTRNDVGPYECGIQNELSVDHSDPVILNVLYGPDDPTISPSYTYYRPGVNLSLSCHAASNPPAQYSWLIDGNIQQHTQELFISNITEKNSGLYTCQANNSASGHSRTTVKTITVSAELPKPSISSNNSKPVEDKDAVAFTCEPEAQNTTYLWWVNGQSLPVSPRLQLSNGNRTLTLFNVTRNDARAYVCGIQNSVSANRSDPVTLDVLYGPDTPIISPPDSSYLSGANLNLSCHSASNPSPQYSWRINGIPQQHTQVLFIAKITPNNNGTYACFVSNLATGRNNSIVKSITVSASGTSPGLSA
Briefly: flow cytometry on SNU-C1 cells (carry CEACAM5 and CD47), PE anti-human IgG Fc. The procedure:
(§2) The binding of CD47×CEACAM5 bispecific antibodies was tested on CEACAM5-expressing human gastric adenocarcinoma cells (e.g. MKN-45), on CEACAM5-expressing human colorectal cancer cells (SK-CO-1, SNU-C1, Ls174T, and LoVo), and on CEACAM5-expressing pancreatic adenocarcinoma cells (HPAF-II).
(§3) Cells were harvested, counted, checked for viability and resuspended at 3×10⁶ cells/ml in FACS buffer (PBS 2% BSA, 0.1% NaN3). 100 μl of the cell suspension was distributed in V-bottom 96-well plates (3×10⁵ cells/well). The supernatant was removed by centrifugation 3 minutes at 4° C., 1300 rpm. Increasing concentrations of the antibody according to the invention were then added into the wells and incubated for 15 minutes at 4° C. Cells were washed twice with cold FACS buffer and re-incubated for further 15 minutes at 4° C. with the PE (R-phycoerythrin)-conjugated mouse anti-human IgG Fc secondary antibody (SouthernBiotech, pre-diluted 1:100 in FACS buffer). Cells were washed twice with cold FACS buffer and resuspended in 300 μl FACS buffer with 1:15000-diluted SytoxBlue (Life Technologies). Fluorescence, specifically mean fluorescence […] (MFI), was determined using a Cytoflex […] flow cytometer. Binding curves and […] and Emax values were obtained and calculated using GraphPad Prism7 software.

Test [3] deals with T2, human CEACAM5 on CEACAM5-expressing …. Briefly: flow cytometry on SK-CO-1 cells (carry CEACAM5 and CD47), PE anti-human IgG Fc. The procedure: as §2, §3
A general note: In flow cytometry, cells or beads pass a laser one at a time.

Test [4] concerns the target T3, his-tagged recombinant huCEACAM3 (R&D Systems, #9868-CM) (human, UniProt P40198 35-155).
T3 construct: Bought reagent; also called rec. hCEACAM3; recombinant soluble human CEACAM3; not shown: His tag
T3 sequence (looked up): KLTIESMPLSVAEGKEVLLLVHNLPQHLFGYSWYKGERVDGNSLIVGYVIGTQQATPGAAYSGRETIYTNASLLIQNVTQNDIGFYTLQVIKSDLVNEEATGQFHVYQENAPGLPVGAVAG
Description: BLI (Octet), KD on CEACAM3 against KD on CEACAM5. How it is done:
as §1
The affinity of the anti-human CEACAM5 arms of the CD47×CEACAM5 bispecific antibodies of the invention for recombinant soluble human CEACAM3 was determined using the Bio-Layer Interferometry (BLI) technology and an OctetRED96 instrument. HIS1K biosensors (Sartorius), loaded with an anti-His tag antibody, were used to capture his-tagged recombinant huCEACAM3 (R&D Systems, #9868-CM). The measurement was performed at 30° C. After hydration, pre-conditioning and a baseline step in Kinetic buffer (PBS, 0.002% Tween 20, 0.01% BSA, Kathon; Sartorius), biosensors were loaded for 5 min with the recombinant huCEACAM3 at 5 μg/mL in Kinetic buffer. […] The association and dissociation phases were monitored for 60 seconds and 120 seconds respectively. […]

In test [5] the target is T2, human CEACAM5 on CEACAM5-expressing …. Briefly: flow cytometry on Ls174T cells (carry CEACAM5 and CD47), PE anti-human IgG Fc. How it is done:
as §2, §3

What is called Kd is the equilibrium constant for the complex coming apart. As a reminder, the EC50 is the concentration that produces a half-maximal response. A lower EC50 goes with greater potency.

B1: K2AC84 (bispecific antibody, human IgG1, kappa, lambda)
heavy: not shown
light 1: QSVLTQPPSVSAAPGQKVTISCSGSSSNIGIGLVSWYQQLPGTAPKLLIYNVNTRPSGIPDRFSGSKSGTSATLGITGLQTGDEADYYCGTWDFSYRVDFGGGTKLTVLGQPKAAPSVTLFPPSSEELQANKATLVCLISDFYPGAVTVAWKADSSPVKAGVETTTPSKQSNNKYAASSYLSLTPEQWKSHRSYSCQVTHEGSTVEKTVAPTECS
light 2: not shown
notes: Kappa-lambda body; also called CD47xCEACAM5 bispecific antibody K2AC84; AC84 (CEACAM5 arm)
For B1, in test [1], the Kd stood at 2.63 nM. Further, the EC50 in test [2] is 2.47 nM; in test [3], 12 nM; in test [5], 5.6 nM. The “Emax (MFI)” value came to 370000 MFI in test [2], 1e+06 MFI in test [3] and 89000 MFI in test [5]. The “Fold difference hCEACAM3/hCEACAM5 (ratio of KD)” value in test [4] was 137 fold.

B2: K2AC100 (bispecific antibody, human IgG1, kappa, lambda)
heavy: not shown
light 1: QSVLTQPPSVSAAPGQKVTISCSGSSSNIGYGLVSWYQQLPGTAPKLLIYNGNIRPSGIPDRFSGSKSGTSATLGITGLQTGDEADYYCGTWDFSYRVDFGGGTKLTVLGQPKAAPSVTLFPPSSEELQANKATLVCLISDFYPGAVTVAWKADSSPVKAGVETTTPSKQSNNKYAASSYLSLTPEQWKSHRSYSCQVTHEGSTVEKTVAPTECS
light 2: not shown
notes: Kappa-lambda body; also called CD47xCEACAM5 bispecific antibody K2AC100; AC100 (CEACAM5 arm)
Regarding B2, the Kd in test [1] came out at 4.8 nM. The EC50 in test [2] was 3.27 nM; in test [3] it was 14.7 nM; in test [5], 4.5 nM. Moreover, the figures for the “Emax (MFI)” value in test [2], in test [3] and in test [5] were 300000 MFI, 900000 MFI and 70000 MFI, respectively. Also, the “Fold difference hCEACAM3/hCEACAM5 (ratio of KD)” value in test [4] is 146 fold.

B3: K2AC22 (bispecific antibody, human IgG1, kappa, lambda)
heavy: not shown
light 1: QSVLTQPPSVSAAPGQKVTISCSGSSSNIANGIVSWYQQLPGTAPKLLIYFDNLRPSGIPDRFSGSKSGTSATLGITGLQTGDEADYYCGTWDFSYGIVFGGGTKLTVLGQPKAAPSVTLFPPSSEELQANKATLVCLISDFYPGAVTVAWKADSSPVKAGVETTTPSKQSNNKYAASSYLSLTPEQWKSHRSYSCQVTHEGSTVEKTVAPTECS
light 2: not shown
notes: Kappa-lambda body, human IgG1, one arm for CEACAM5 and one for CD47; comparison antibody from WO2019234576; also called state of the art bispecific CEAxCD47 antibody K2AC22; CD47xCEACAM5 bispecific antibody K2AC22
For B3, the Kd in test [1] came out at 120 nM. Moreover, the EC50 in test [2] is 10.7 nM; in test [3] it was 24 nM; in test [5], 28 nM. In addition, the “Emax (MFI)” value in test [2] is 240000 MFI; in test [3], 520000 MFI; in test [5], 73000 MFI. The “Fold difference hCEACAM3/hCEACAM5 (ratio of KD)” value in test [4] turned out to be 83 fold.

The values above are taken from patent US20220195067A1 (LAMKAP BIO BETA, published 2022).
